{
  "source": "patent US20070185028A1",
  "about": "“Compositions and methods for treatment of protein misfolding and protein aggregation diseases” (priority 2004, published 2007)",
  "assay_type_in_all_cases": "biochemical",
  "key": {"Aβ1-42": {"molecular_target": "T1, Aβ1-42 (Homo sapiens, UniProt P05067)", "T1 construct": "Aβ1-42 (American Peptide); purchased American Peptide", "experiment": "Aβ1-42 fibril formation ThT fluorescence assay", "conditions": "for decrease in ThT fluorescence of Aβ1-42: 6 μM inhibitor, 30 μM Aβ1-42, 37° C., 48 hrs; for inhibition of Aβ fibrillation: peptide to substrate concentration of 1:5", "description": "The effect of five synthesized αB crystallin peptides STSLSPFYLRPPSFLRAP (ST), DRFSVNLDVKHFS (DR), HGKHEERQDE (HG), LTITSSLSSDGV (LT), and ERTIPITRE (ER) on Aβ1-42 fibrillation was measured using the ThT fluorescence assay (FIG. 1). The formation and inhibition of Aβ1-42 fibrils was qualitatively verified by fluorescence and bright-field microscopy. The concentration and stoichometry of the peptides was varied relative to Aβ1-42 to establish a concentration curve. In addition, the effect of two known inhibitors of Aβ1-42 fibrillation (APS and NAP) and a control neuropeptide (AT1) with no fibril inhibition activity was measured and compared to the effect of the αB crystallin peptides on Aβ1-42 fibrillation. The ThT fluorescence of 30 μM Aβ1-42 alone incubated at 37° C. for 48 hrs increased from ˜350,000 to ˜450,000 RFU. […] In contrast, 6 μM DR, LT, and […] had no effect on Aβ1-42 fibril formation. […] Increasing the concentration of the DR peptide to 30 μM decreased the ThT fluorescence by approximately 50%. […] However, when the concentrations of the LT and ER peptides were increased to 150 μM, a 60-100% decrease in ThT fluorescence was measured. […] The negative control peptide AT1 had no effect on Aβ1-42 fibril formation even at a concentration as high as 300 μM.\nThe Thioflavin T (ThT) fluorescence of Aβ1-42 in the presence of varying concentrations of αB crystallin peptides and controls was measured. […] Addition of 6 μM DR, LT, and ER had no effect on the ThT fluorescence of Aβ1-42. When the concentration of the peptides was increased to 30 μM (1:1::peptide:Aβ1-42), the αB crystallin peptides ST, DR, HG decreased the ThT fluorescence by 50-100%. At the same concentrations, APS and NAP decreased the ThT fluorescence by 30-100%. When the concentration of the peptides was increased further to 150 μM ([…]), four of the five αB crystallin peptides DR, HG, LT, and ER decreased the ThT fluorescence by 58-100%. At the same concentrations, APS and NAP decreased the fluorescence by 28-100%. […] The formation and inhibition of Aβ fibrils was verified microscopically.\nThioflavin T (ThT) Assays. The effect of the five αB crystallin peptides (ST, DR, HG, LT, and ER) on Aβ1-42 fibril formation was measured using the ThT fluorescence assay (44-47) and compared with two known inhibitors of Aβ1-42 fibril formation (Tramiprosate and NAP)(34, 36) and a negative control neuropeptide Angiotensin 1 (AT1). Thioflavin T is a fluorescent dye that has a high affinity for amyloid fibrils and becomes fluorescent (excitation λ=450 nm, emission λ=486 nm) when bound to fibrils. For the Aβ1-42 assays, peptides and APS were dissolved to 2 mM in 0.25% DMSO and diluted accordingly, while Aβ1-42 was dissolved in 20 mM Tris-Cl, pH 7.40, and 100 mM NaCl. For the 5:1::inhibitor:Aβ1-42 assay, 10 μL of 450 μM peptide or APS was mixed with 10 μL of 90 μM Aβ1-42), 7 μL 20 mM Tris-Cl, 100 mM NaCl, pH 7.4 and 3 μL of 1 mM ThT. For the 1:1::inhibitor:Aβ1-42 assay, 10 μL of 90 μM peptide or APS was mixed with 10 μL of 90 μM Aβ(1-42), 7 μL 20 mM Tris-Cl, 100 mM NaCl, pH 7.4 and 3 μL of 1 mM ThT. For the 1:5::inhibitor:Aβ1-42 assay, 10 μL of 18 μM peptide or APS was mixed with 10 μL of 90 μM Aβ(1-42), 7 μL 20 mM Tris-Cl, 100 mM NaCl, pH 7.4 and 3 μL of 1 mM ThT. ThT fluorescence in relative fluorescence units (RFU) was measured using a Perkin Elmer Victor^3 V plate reader. Assays were performed in 384-well fluorescence plates in duplicates or triplicates. Samples were incubated at 37° C. for a total of 48 hours. ThT fluorescence was measured at 0, 24, and 48 hours. The effect of the peptides and APS was calculated as percentage fibril formation relative to Aβ1-42 alone (100%) at the end of 48 hours."}, "transthyretin (TTR)": {"molecular_target": "T2, transthyretin (TTR) (Homo sapiens, UniProt P02766)", "T2 construct": "purchased Sigma-Aldrich", "experiment": "Transthyretin fibrillation ThT assay", "conditions": "for decrease in ThT fluorescence of TTR: 3.2 μM, 16 μM TTR, 37° C.", "description": "The effect of the five αB crystallin peptides ST, DR, HG, LT, and ER on TTR fibrillation was measured using the ThT fluorescence assay (FIG. 26). The formation and inhibition of TTR fibrils was qualitatively verified by fluorescence and bright-field microscopy. The concentration of the peptides was varied relative to TTR to establish a concentration curve. In addition, the effect of a control neuropeptide (AT1) with no TTR fibril inhibition activity was measured and compared to the effect of the αB crystallin peptides on TTR fibril formation. The ThT fluorescence of 16 μM TTR alone incubated at 37° C. for 4 hrs, increased from ˜15,000 to ˜45,000 RFU. Addition of 3.2 μM αB crystallin peptides, ST, DR, LT, and HG decreased the ThT fluorescence of TTR by 15-70%. In contrast, 3.2 μM ER had no effect on TTR fibril formation. Increasing the concentration of the ER peptide to 16 μM decreased the ThT fluorescence of TTR by 60%. The negative control peptide AT1 had no effect on TTR fibrillation even at a concentration as high as 160 μM. All five αB crystallin peptides inhibited TTR fibrillation at sub-stoichometric and stoichometric concentrations (3.2 μM and 16 μM).\nThe Thioflavin T (ThT) fluorescence of TTR in the presence of varying concentrations of αB crystallin peptides and controls was measured. […] When the concentration of the peptides was increased to 16 μM (1:1::peptide:TTR), the αB crystallin peptides ST, DR, HG, LT and ER decreased the ThT fluorescence by 8-72%. When the concentration of the peptides was increased further to 80 μM ([…]), all of the five αB crystallin peptides ST, DR, HG, LT, and ER decreased the ThT fluorescence by 40-70%. […] The formation and inhibition of TTR fibrils was verified microscopically.\nTransthyretin fibrillation ThT assays were performed as described previously. Hurshman et al., Biochemistry 43:7365-81, 2004; O'Nuallain and Wetzel, Proc Natl Acad Sci USA 99:1485-90, 2002. Peptides were dissolved to 2 mM in 0.25% DMSO and diluted accordingly, while TTR was dissolved in 200 mM KCl, 2 mM EDTA, 5 mM PBS, 200 mM sodium acetate, pH 4.4. For the 5::peptide:TTR assay, 10 μL of 160 μM peptide was mixed with 10 μL of 32 μM TTR, and 1 μL of 1 mM ThT. For the 1:1::peptide:TTR assay, 10 μL of 32 μM peptide was mixed with 10 μL of 32 μM TTR and 1 μL of 1 mM ThT. For the 1:5::peptide:TTR assay, 10 μL of 6.4 μM peptide was mixed with 10 μL of 32 μM TTR and 1 μL of 1 mM ThT. ThT fluorescence was measured using a Perkin Elmer Victor^3 V plate reader. Assays were performed in 384-well fluorescence plates in duplicates or triplicates. Samples were incubated at 37° C. ThT fluorescence was measured continuously for 150 minutes. The effect of the peptides and APS was calculated as percentage fibril formation relative to TTR alone (100%) at the end of 150 minutes."}, "Aβ": {"molecular_target": "Aβ (Homo sapiens, UniProt P05067)", "experiment": "Aβ Thioflavin T fluorescence (fibrillization, 50° C., 72 hours)", "conditions": "Thioflavin T; 1:10 Aβ:peptide; 50° C., 72 hours", "description": "Aβ Thioflaviin T fluorescence. Aβ fibrils were grown in the presence and absence of αB crystallin and peptides in conditions similar to that previously described for the presence of αB crystallin. Bakthisaran et al., Biochem J, 2005. Peptides were dissolved to 9.1 mM in trifluorethanol (TFE) and diluted to 0.91 mM stock solutions in 50 mM PBS, 100 mM NaCl, pH 7.4. 3.5 mg of Thioflavin T was dissolved in 100 μl of 50 mM Glycine pH 8.5. A stock solution of 1 mg/ml (0.22 mM) Aβ was prepared. 20 μl Aβ, 50 μl chaperone, 2 μl Thioflavin T was mixed with 28 μl 50 mM PBS, 100 mM NaCl, pH 7.4. Fluorescence was read using a Beckman Coultier DTX 880 multimode detector. Samples were heated at 50° C. for 72 hours and fluorescence was read again.\n(§1) The fibrillization of Aβ was measured as fluorescence of the fluorescent dye Thioflavin T from solutions containing 1:10 monomeric molar ratio of Aβ:peptide. In the absence of Aβ fibrils, Thioflavin T had little or no fluorescence. The fluorescence of the Thioflavin T bound to Aβ fibrils in the absence of any other molecule after 72 hrs was set to 100%. […] Fibril formation=ΔfluorescenceAβ (with chaperone)*100/ΔfluorescenceAβ (without chaperone)."}, "γD crystallin": {"molecular_target": "T3, γD crystallin (Homo sapiens, UniProt P07320)", "T3 sequence (P07320 2-174)": "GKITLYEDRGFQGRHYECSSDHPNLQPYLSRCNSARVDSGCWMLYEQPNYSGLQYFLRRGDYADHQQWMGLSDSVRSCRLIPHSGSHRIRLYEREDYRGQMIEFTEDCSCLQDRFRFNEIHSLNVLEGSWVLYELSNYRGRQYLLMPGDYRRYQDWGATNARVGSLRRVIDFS", "experiment": "γD crystallin Thioflavin T fluorescence (fibrillization)", "conditions": "1:1 γD crystallin:peptide", "description": "γD crystallin Thioflaviin T fluorescence. γD crystallin fibrils were formed in a similar way to that of γ crystalline. Meehan et al., J Biol Chem 279: 3413-3419, 2004. Peptides were dissolved to 9.1 mM in TFE and diluted to 0.91 mM stock solutions in 10% TFE, pH 2.0. 3.5 mg of Thioflavin T was dissolved in 100 μl of 50 mM Glycine pH 8.5. A stock solution of 1 mg/ml (0.22 mM) Aβ was prepared. 20 μl Aβ, 5 μl chaperone, 2 μl Thioflavin T was mixed with 73 μl 10% TFE, pH 2.0. Fluorescence was read using a Beckman Coultier DTX 880 multimode detector. Samples were heated at 50° C. for 72 hours and fluorescence was read again.\nas §1, with “γD crystallin” for “Aβ”, “1:1” for “1:10”, “γD crystallin:peptide.” for “Aβ:peptide.”, “fibrils” for “Aβ fibrils,”, “formation=ΔfluorescenceγD crystallin” for “formation=ΔfluorescenceAβ”, “chaperone)*100/ΔfluorescenceγD crystallin” for “chaperone)*100/ΔfluorescenceAβ”"}},
  "note": "Where “and” joins values, the source holds several entries; their conditions need not be identical. Equal entries are not always repeated.",
  "data": [
    {"molecule": "NCCCS(=O)(=O)O", "note": "[APS, 3-aminopropanesulfonic acid, reference compound]", "values": [
      {"measurement": "decrease in ThT fluorescence of Aβ1-42", "setting": "Aβ1-42", "result": "~40% and 38%"},
      {"measurement": "inhibition of Aβ fibrillation", "setting": "Aβ1-42", "result": "~38", "unit": "%"},
      {"measurement": "decrease in ThT fluorescence of TTR", "setting": "transthyretin (TTR)", "result": "did not have any effect"}
    ]},
    {"molecule": "HEER", "values": [
      {"measurement": "inhibition of TTR fibrils, HG derived peptides", "setting": "transthyretin (TTR); 1:1 ratio", "result": "~100", "unit": "%"}
    ]},
    {"molecule": "NAPVSIPQ [reference compound]", "values": [
      {"measurement": "decrease in ThT fluorescence of Aβ1-42", "setting": "Aβ1-42", "result": "~40% and 38%"},
      {"measurement": "inhibition of Aβ fibrillation", "setting": "Aβ1-42", "result": "~38", "unit": "%"},
      {"measurement": "decrease in ThT fluorescence of TTR", "setting": "transthyretin (TTR)", "result": "did not have any effect"}
    ]},
    {"molecule": "αB crystallin: wild type recombinant human αB crystallin, small heat shock protein and molecular chaperone", "values": [
      {"measurement": "Δfluorescence (Aβ)", "setting": "Aβ", "result": "318,471,040"},
      {"measurement": "effect on the fibrillization of γD crystallin (ranking)", "setting": "γD crystallin; 72 hrs", "result": "weakest effect"},
      {"measurement": "Δfluorescence (γD crystallin)", "setting": "γD crystallin; Thioflavin T, 50° C., 72 hours", "result": "1,079,141,056"}
    ]}
  ]
}
